Measurements from patent publication US20140087995A1 (published 2014).
Numbered stars: 1 amine (or outer) side, 2 acyl side, 3 side chain; on linkers, the order of the positions; unused ones are H or OH. Bridge positions count the residues as written; N and C are the ends. Side chains are listed from the residue outwards. Ends that are not written are not given here. * marks the point of attachment. C20 diacid = O=C(O)CCCCCCCCCCCCCCCCCCC(=O)*; γGlu = O=C(O)[C@H](CCC(=O)[*:2])N[*:1]; AEEA = NCCOCCOCC(=O)O

T1: rat amylin receptor (rat calcitonin receptor + rat RAMP 3) (rat, UniProt P32214 25-516; Q9JJ73 23-147)
T1 construct: whole, on cells; Membranes prepared from transiently transfected BHK tk'ts 13 cells (Assay VI); also called rAmylin-R; rAmylin
T1 sequence (looked up) 1: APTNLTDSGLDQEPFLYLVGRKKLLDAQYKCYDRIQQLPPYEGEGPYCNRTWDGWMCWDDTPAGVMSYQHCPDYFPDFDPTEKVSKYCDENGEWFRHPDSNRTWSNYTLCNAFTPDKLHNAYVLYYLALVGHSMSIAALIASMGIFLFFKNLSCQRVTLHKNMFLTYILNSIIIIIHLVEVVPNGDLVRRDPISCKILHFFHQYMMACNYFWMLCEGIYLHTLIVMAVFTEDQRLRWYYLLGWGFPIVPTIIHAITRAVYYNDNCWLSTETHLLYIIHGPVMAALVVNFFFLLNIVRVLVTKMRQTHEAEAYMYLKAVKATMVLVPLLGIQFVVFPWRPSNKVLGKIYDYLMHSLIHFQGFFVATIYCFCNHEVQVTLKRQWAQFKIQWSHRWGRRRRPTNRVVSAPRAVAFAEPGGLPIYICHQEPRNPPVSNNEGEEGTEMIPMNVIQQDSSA
T1 sequence (looked up) 2: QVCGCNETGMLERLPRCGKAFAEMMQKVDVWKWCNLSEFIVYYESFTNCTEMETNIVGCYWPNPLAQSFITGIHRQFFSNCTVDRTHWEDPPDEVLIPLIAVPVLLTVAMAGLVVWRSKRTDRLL

T2: rat calcitonin receptor (rat, UniProt P32214 25-516)
T2 construct: whole, on cells; Membranes prepared from transiently transfected BHK tk'ts 13 cells (Assay VIII); also called rCTR; rCT
T2 sequence (looked up): T1 sequence (looked up) 1

T3: human calcitonin receptor (human, UniProt P30988 25-474)
T3 construct: whole, on cells; Membranes prepared from a stably transfected BHK cell line (Assay VII); also called hCTR; hCT
T3 sequence (looked up): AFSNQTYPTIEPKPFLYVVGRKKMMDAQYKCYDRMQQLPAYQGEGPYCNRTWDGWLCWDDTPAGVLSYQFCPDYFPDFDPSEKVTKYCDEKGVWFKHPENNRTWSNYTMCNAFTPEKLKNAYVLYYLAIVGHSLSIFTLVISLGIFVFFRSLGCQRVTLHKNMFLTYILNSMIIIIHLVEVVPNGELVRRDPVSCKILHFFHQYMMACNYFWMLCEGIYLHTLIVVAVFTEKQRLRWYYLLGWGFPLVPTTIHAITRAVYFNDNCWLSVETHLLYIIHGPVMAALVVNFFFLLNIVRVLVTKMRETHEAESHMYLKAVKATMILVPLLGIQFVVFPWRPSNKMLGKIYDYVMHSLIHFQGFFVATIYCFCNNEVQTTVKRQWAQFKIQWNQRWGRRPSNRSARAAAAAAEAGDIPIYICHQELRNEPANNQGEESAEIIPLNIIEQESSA

B1: N^ε1-[(4S)-4-carboxy-4-(19-carboxynonadecanoylamino)butanoyl]-[His14,Arg17,Pro21,Pro27]-h-amylin (peptide)
peptide: K([γGlu-C20 diacid])CNTATCATQRLAHFLRHSSPNFGAIPSSTNVGSNTY-NH2
modifications: disulfide 2-7; N-terminus assumed
SMILES: CC[C@H](C)[C@H](NC(=O)[C@H](C)NC(=O)CNC(=O)[C@H](Cc1ccccc1)NC(=O)[C@H](CC(N)=O)NC(=O)[C@@H]1CCCN1C(=O)[C@H](CO)NC(=O)[C@H](CO)NC(=O)[C@H](Cc1c[nH]cn1)NC(=O)[C@H](CCCNC(=N)N)NC(=O)[C@H](CC(C)C)NC(=O)[C@H](Cc1ccccc1)NC(=O)[C@H](Cc1c[nH]cn1)NC(=O)[C@H](C)NC(=O)[C@H](CC(C)C)NC(=O)[C@H](CCCNC(=N)N)NC(=O)[C@H](CCC(N)=O)NC(=O)[C@@H](NC(=O)[C@H](C)NC(=O)[C@@H]1CSSC[C@H](NC(=O)[C@@H](N)CCCCNC(=O)CC[C@H](NC(=O)CCCCCCCCCCCCCCCCCCC(=O)O)C(=O)O)C(=O)N[C@@H](CC(N)=O)C(=O)N[C@@H]([C@@H](C)O)C(=O)N[C@@H](C)C(=O)N[C@@H]([C@@H](C)O)C(=O)N1)[C@@H](C)O)C(=O)N1CCC[C@H]1C(=O)N[C@@H](CO)C(=O)N[C@@H](CO)C(=O)N[C@H](C(=O)N[C@@H](CC(N)=O)C(=O)N[C@H](C(=O)NCC(=O)N[C@@H](CO)C(=O)N[C@@H](CC(N)=O)C(=O)N[C@H](C(=O)N[C@@H](Cc1ccc(O)cc1)C(N)=O)[C@@H](C)O)C(C)C)[C@@H](C)O
notes: Analogue of human amylin; also called compound 70
B2: N^ε1-[(4S)-4-carboxy-4-[[(4S)-4-carboxy-4-(19-carboxynonadecanoylamino)butanoyl]amino]butanoyl]-[Glu14,Arg17,Pro21,Pro27,Arg35]-h-amylin (peptide)
peptide: K([γGlu-γGlu-C20 diacid])CNTATCATQRLAEFLRHSSPNFGAIPSSTNVGSRTY-NH2
modifications: disulfide 2-7; N-terminus assumed
SMILES: CC[C@H](C)[C@H](NC(=O)[C@H](C)NC(=O)CNC(=O)[C@H](Cc1ccccc1)NC(=O)[C@H](CC(N)=O)NC(=O)[C@@H]1CCCN1C(=O)[C@H](CO)NC(=O)[C@H](CO)NC(=O)[C@H](Cc1c[nH]cn1)NC(=O)[C@H](CCCNC(=N)N)NC(=O)[C@H](CC(C)C)NC(=O)[C@H](Cc1ccccc1)NC(=O)[C@H](CCC(=O)O)NC(=O)[C@H](C)NC(=O)[C@H](CC(C)C)NC(=O)[C@H](CCCNC(=N)N)NC(=O)[C@H](CCC(N)=O)NC(=O)[C@@H](NC(=O)[C@H](C)NC(=O)[C@@H]1CSSC[C@H](NC(=O)[C@@H](N)CCCCNC(=O)CC[C@H](NC(=O)CC[C@H](NC(=O)CCCCCCCCCCCCCCCCCCC(=O)O)C(=O)O)C(=O)O)C(=O)N[C@@H](CC(N)=O)C(=O)N[C@@H]([C@@H](C)O)C(=O)N[C@@H](C)C(=O)N[C@@H]([C@@H](C)O)C(=O)N1)[C@@H](C)O)C(=O)N1CCC[C@H]1C(=O)N[C@@H](CO)C(=O)N[C@@H](CO)C(=O)N[C@H](C(=O)N[C@@H](CC(N)=O)C(=O)N[C@H](C(=O)NCC(=O)N[C@@H](CO)C(=O)N[C@@H](CCCNC(=N)N)C(=O)N[C@H](C(=O)N[C@@H](Cc1ccc(O)cc1)C(N)=O)[C@@H](C)O)C(C)C)[C@@H](C)O
notes: Analogue of human amylin; also called compound 89
B3: N^ε1-[(4S)-4-carboxy-4-[[(4S)-4-carboxy-4-(19-carboxynonadecanoylamino)butanoyl]amino]butanoyl]-[Glu14,Arg17,Pro21,Pro27,His34]-h-amylin (peptide)
peptide: K([γGlu-γGlu-C20 diacid])CNTATCATQRLAEFLRHSSPNFGAIPSSTNVGHNTY-NH2
modifications: disulfide 2-7; N-terminus assumed
SMILES: CC[C@H](C)[C@H](NC(=O)[C@H](C)NC(=O)CNC(=O)[C@H](Cc1ccccc1)NC(=O)[C@H](CC(N)=O)NC(=O)[C@@H]1CCCN1C(=O)[C@H](CO)NC(=O)[C@H](CO)NC(=O)[C@H](Cc1c[nH]cn1)NC(=O)[C@H](CCCNC(=N)N)NC(=O)[C@H](CC(C)C)NC(=O)[C@H](Cc1ccccc1)NC(=O)[C@H](CCC(=O)O)NC(=O)[C@H](C)NC(=O)[C@H](CC(C)C)NC(=O)[C@H](CCCNC(=N)N)NC(=O)[C@H](CCC(N)=O)NC(=O)[C@@H](NC(=O)[C@H](C)NC(=O)[C@@H]1CSSC[C@H](NC(=O)[C@@H](N)CCCCNC(=O)CC[C@H](NC(=O)CC[C@H](NC(=O)CCCCCCCCCCCCCCCCCCC(=O)O)C(=O)O)C(=O)O)C(=O)N[C@@H](CC(N)=O)C(=O)N[C@@H]([C@@H](C)O)C(=O)N[C@@H](C)C(=O)N[C@@H]([C@@H](C)O)C(=O)N1)[C@@H](C)O)C(=O)N1CCC[C@H]1C(=O)N[C@@H](CO)C(=O)N[C@@H](CO)C(=O)N[C@H](C(=O)N[C@@H](CC(N)=O)C(=O)N[C@H](C(=O)NCC(=O)N[C@@H](Cc1c[nH]cn1)C(=O)N[C@@H](CC(N)=O)C(=O)N[C@H](C(=O)N[C@@H](Cc1ccc(O)cc1)C(N)=O)[C@@H](C)O)C(C)C)[C@@H](C)O
notes: Analogue of human amylin; also called compound 87
B4: N^ε1-[(4S)-4-carboxy-4-[[(4S)-4-carboxy-4-(19-carboxynonadecanoylamino)butanoyl]amino]butanoyl]-[His14,Arg17,Pro21,Pro27]-h-amylin (peptide)
peptide: K([γGlu-γGlu-C20 diacid])CNTATCATQRLAHFLRHSSPNFGAIPSSTNVGSNTY-NH2
modifications: disulfide 2-7; N-terminus assumed
SMILES: CC[C@H](C)[C@H](NC(=O)[C@H](C)NC(=O)CNC(=O)[C@H](Cc1ccccc1)NC(=O)[C@H](CC(N)=O)NC(=O)[C@@H]1CCCN1C(=O)[C@H](CO)NC(=O)[C@H](CO)NC(=O)[C@H](Cc1c[nH]cn1)NC(=O)[C@H](CCCNC(=N)N)NC(=O)[C@H](CC(C)C)NC(=O)[C@H](Cc1ccccc1)NC(=O)[C@H](Cc1c[nH]cn1)NC(=O)[C@H](C)NC(=O)[C@H](CC(C)C)NC(=O)[C@H](CCCNC(=N)N)NC(=O)[C@H](CCC(N)=O)NC(=O)[C@@H](NC(=O)[C@H](C)NC(=O)[C@@H]1CSSC[C@H](NC(=O)[C@@H](N)CCCCNC(=O)CC[C@H](NC(=O)CC[C@H](NC(=O)CCCCCCCCCCCCCCCCCCC(=O)O)C(=O)O)C(=O)O)C(=O)N[C@@H](CC(N)=O)C(=O)N[C@@H]([C@@H](C)O)C(=O)N[C@@H](C)C(=O)N[C@@H]([C@@H](C)O)C(=O)N1)[C@@H](C)O)C(=O)N1CCC[C@H]1C(=O)N[C@@H](CO)C(=O)N[C@@H](CO)C(=O)N[C@H](C(=O)N[C@@H](CC(N)=O)C(=O)N[C@H](C(=O)NCC(=O)N[C@@H](CO)C(=O)N[C@@H](CC(N)=O)C(=O)N[C@H](C(=O)N[C@@H](Cc1ccc(O)cc1)C(N)=O)[C@@H](C)O)C(C)C)[C@@H](C)O
notes: Analogue of human amylin; also called compound 92
B5: N^ε1-[2-[2-[2-(19-carboxynonadecanoylamino)ethoxy]ethoxy]acetyl]-[His14,Arg17,Pro21,Pro27]-h-amylin (peptide)
peptide: K([AEEA-C20 diacid])CNTATCATQRLAHFLRHSSPNFGAIPSSTNVGSNTY-NH2
modifications: disulfide 2-7; N-terminus assumed
SMILES: CC[C@H](C)[C@H](NC(=O)[C@H](C)NC(=O)CNC(=O)[C@H](Cc1ccccc1)NC(=O)[C@H](CC(N)=O)NC(=O)[C@@H]1CCCN1C(=O)[C@H](CO)NC(=O)[C@H](CO)NC(=O)[C@H](Cc1c[nH]cn1)NC(=O)[C@H](CCCNC(=N)N)NC(=O)[C@H](CC(C)C)NC(=O)[C@H](Cc1ccccc1)NC(=O)[C@H](Cc1c[nH]cn1)NC(=O)[C@H](C)NC(=O)[C@H](CC(C)C)NC(=O)[C@H](CCCNC(=N)N)NC(=O)[C@H](CCC(N)=O)NC(=O)[C@@H](NC(=O)[C@H](C)NC(=O)[C@@H]1CSSC[C@H](NC(=O)[C@@H](N)CCCCNC(=O)COCCOCCNC(=O)CCCCCCCCCCCCCCCCCCC(=O)O)C(=O)N[C@@H](CC(N)=O)C(=O)N[C@@H]([C@@H](C)O)C(=O)N[C@@H](C)C(=O)N[C@@H]([C@@H](C)O)C(=O)N1)[C@@H](C)O)C(=O)N1CCC[C@H]1C(=O)N[C@@H](CO)C(=O)N[C@@H](CO)C(=O)N[C@H](C(=O)N[C@@H](CC(N)=O)C(=O)N[C@H](C(=O)NCC(=O)N[C@@H](CO)C(=O)N[C@@H](CC(N)=O)C(=O)N[C@H](C(=O)N[C@@H](Cc1ccc(O)cc1)C(N)=O)[C@@H](C)O)C(C)C)[C@@H](C)O
notes: Analogue of human amylin; also called compound 90

target: T1, rat amylin receptor (rat calcitonin …); assay: SPA competition vs 125I-rat amylin, membranes of BHK cells with rat calcitonin receptor + rat RAMP3 (Assay VI)

Binder | IC50 [nM]
B1 | 0.355
B2 | 2.37
B3 | 2.07
B4 | 0.668
B5 | 0.246

target: T2, rat calcitonin receptor; assay: SPA competition vs 125I-calcitonin, membranes of BHK cells with rat calcitonin receptor (Assay VIII)

Binder | IC50 [nM]
B1 | 34.2
B2 | 115
B3 | 94.5
B4 | 104
B5 | 18.2

target: T3, human calcitonin receptor; assay: ratio of binding IC50s: human calcitonin receptor / human amylin receptor (reference)
Method in brief: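 Membranes (35 ng/μL final) + SPA beads, 50 mM Hepes pH 7.4 buffer with 1 mM CaCl2, 5 mM MgCl₂, 0.1% OA, 0.02% Tween20; 120 min, 25° C, shaking; centrifuged, counted; IC₅₀ by one-site binding competition.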

Binder | Ratio hCT/hAmylin binding
B1 | 60.8
B2 | 28
B3 | 35.6
B4 | 145
B5 | 42.2

target: T2, rat calcitonin receptor; assay: ratio of binding IC50s: rat calcitonin receptor / rat amylin receptor (reference)

Binder | Ratio rCT/rAmylin binding
B1 | 96.5
B2 | 48.8
B3 | 45.6
B4 | 156
B5 | 74.1
